Experimental data reported in US11395853B2, “Biomimetic drug delivery of an immunomodulatory agent for the treatment of ocular conditions” (University of Pittsburgh-Of the Commonwealth System of …, priority 2016, dated 2022).

What was measured:
[1] = system: ConA-induced DED mice; assay: Corneal permeability, corneal fluorescein staining score, ConA-induced DED (Example 1); assay type: in vivo, Balb/c mice; settings: one week after ConA into lacrimal gland; MPs or soluble CCL22 co-injected with ConA; anti-GITR 500 μg i.p. 5 days prior
Experimental: (§1) Fabrication of Microparticles—Poly (lactic-co-glycolic) acid (PLGA) microparticles encapsulating recombinant mouse CCL22 (R&D Systems, Minneapolis Minn.) were made according to a previously reported water-oil-water double emulsion technique. Glowacki, A. J. et al. Proc. Natl. Acad. Sci. U.S.A 110, 18525-30 (2013). Briefly, 200 mg of RG502H poly(D,L-lactide-co-glycolide) polymer (Sigma Aldrich, St. Louis, Mo.) was dissolved in 4 ml of dichloromethane and vortexed. Then […], of an aqueous solution containing 5 μg of recombinant mouse CCL22 and 2 mg of BSA (Sigma Aldrich, St. Louis, Mo.) with […] NaCl was pipetted into the mixture of polymer and dichloromethane. […] Release media (supernatant) was sampled periodically and CCL22 concentrations were quantified using an enzyme-linked immunosorbent assay (ELISA) (R&D Systems, Minneapolis, Minn.). […] Measurement of Tear Production—Aqueous tear production was measured with phenol red cotton threads (Oasis Medical, San Dimas, Calif.). Thread was placed in the lateral canthus of the eye for a period of 60 seconds, and wetting was measured in millimeters using a dissecting microscope (Olympus SZX10, Waltham, Mass.). […] The surface of the cornea was evaluated using a dissecting microscope with a fluorescent excitation lamp (Olympus SZX10, Waltham, Mass.). […]

[2] = system: ConA-induced DED mice; assay: Aqueous tear production, phenol red cotton thread, ConA-induced DED (Example 1); assay type: in vivo, Balb/c mice; settings: one week after ConA into lacrimal gland; MPs 0.5 mg/20 μl co-injected with ConA; soluble CCL22 2.5 μg in 20 μl; anti-GITR 500 μg i.p. 5 days prior
Experimental: as §1

B1: Soluble CCL22: recombinant mouse CCL22 chemokine injected in solution with ConA at 2.5 μg in 20 μl (protein, UniProt O88430 25-92, looked up)
C-C motif chemokine 22: GPYGANVEDSICCQDYIRHPLPSRLVKEFFWTSKSCRKPGVVLITVKNRDICADPRQVWVKKLLHKLS
With B1 the “corneal fluorescein staining (corneal permeability)” value [1] was “central punctate fluorescein staining was observed” and the aqueous tear production [2] was “unable to prevent loss of tear production”.
